These are literature values, as cited in PMC5347372.

For this data set, the target named is alpha-factor (Saccharomyces cerevisiae) (UniProt P01149).

One may read the Kd as the free concentration of one partner at which half of the binding sites on the other are occupied at equilibrium, for simple one-to-one binding. Ste2 (from UniProt D6VTK4): the Kd was 7 nM.
